The target in test [1] is monomeric human Fc-fused SARS-CoV-2_RBD-SD1 (SARS-CoV-2 (Wuhan-Hu-1), UniProt P0DTC2). The experiment in a line: BLI. In general terms: In BLI a coated tip is dipped into the sample, and binding shifts an interference pattern.
Test [2] has as its target mouse IgG1 Fc fused SARS-CoV-1 RBD (Sino Biological, 40150-V05H) (SARS-CoV-1, isolate not named, UniProt P59594). The test can be described thus: BLI.
The target in test [3] is SARS-CoV-2 spike expressed on the surface of HEK293 cells (SARS-CoV-2 (Wuhan-Hu-1), UniProt P0DTC2). The test can be described thus: flow cytometry on cells. A general note: In flow cytometry, cells or beads pass a laser one at a time.

Changes are numbered by the printed parent chain.

B1: humVHH_S56A (VHH)
VHH: EVQLVESGGGLVQPGGSLRLSCAASGRTFSEYAMGWFRQAPGKEREFVATISWSGGATYYTDSVKGRFTISRDNAKNTVYLQMNSLRPEDTAVYYCAAAGLGTVVSEWDYDYDYWGQGTLVTVSS
With B1, the “fold increase in affinity over humVHH” value in test [1] was around 7 fold. Also, the binding result in test [2] is given as “binds”.

B2: humVHH (VHH)
VHH: B1 VHH with A57S
Consider B2, for which the binding result in test [1] and in test [3] was “binds” in each case.

The values are drawn from publication doi:10.1101/2021.03.08.433449 (bioRxiv, 2021).
